B1: Myo5p (1,082–1,219) (domain or fragment, S. cerevisiae, UniProt Q04439 1082-1219, looked up)
chain: SSKPKEPMFEAAYDFPGSGSPSELPLKKGDVIYITREEPSGWSLGKLLDGSKEGWVPTAYMKPHSGNNNIPTPPQNRDVPKPVLNSVQHDNTSANVIPAAAQASLGDGLANALAARANKMRLESDDEEANEDEEEDDW
B2: Vrp1p (1–200) (domain or fragment, S. cerevisiae, UniProt P37370 1-200, looked up)
chain: MAGAPAPPPPPPPPALGGSAPKPAKSVMQGRDALLGDIRKGMKLKKAETNDRSAPIVGGGVVSSASGSSGTVSSKGPSMSAPPIPGMGAPQLGDILAGGIPKLKHINNNASTKPSPSASAPPIPGAVPSVAAPPIPNAPLSPAPAVPSIPSSSAPPIPDIPSSAAPPIPIVPSSPAPPLPLSGASAPKVPQNRPHMPSVR
B3: Myo3p (1,118–1,271) (domain or fragment, S. cerevisiae, UniProt P36006 1118-1271, looked up)
chain: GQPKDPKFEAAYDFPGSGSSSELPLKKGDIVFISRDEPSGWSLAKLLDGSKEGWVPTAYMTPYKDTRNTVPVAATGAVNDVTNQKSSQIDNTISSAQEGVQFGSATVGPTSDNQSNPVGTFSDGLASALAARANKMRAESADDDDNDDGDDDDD
B4: Vrp1p (195–817) (domain or fragment, S. cerevisiae, UniProt P37370 195-817, looked up)
chain: HMPSVRPAHRSHQRKSSNISLPSVSAPPLPSASLPTHVSNPPQAPPPPPTPTIGLDSKNIKPTDNAVSPPSSEVPAGGLPFLAEINARRSERGAVEGVSSTKIQTENHKSPSQPPLPSSAPPIPTSHAPPLPPTAPPPPSLPNVTSAPKKATSAPAPPPPPLPAAMSSASTNSVKATPVPPTLAPPLPNTTSVPPNKASSMPAPPPPPPPPPGAFSTSSALSASSIPLAPLPPPPPPSVATSVPSAPPPPPTLTTNKPSASSKQSKISSSSSSSAVTPGGPLPFLAEIQKKRDDRFVVGGDTGYTTQDKQEDVIGSSKDDNVRPSPISPSINPPKQSSQNGMSFLDEIESKLHKQTSSNAFNAPPPHTDAMAPPLPPSAPPPPITSLPTPTASGDDHTNDKSETVLGMKKAKAPALPGHVPPPPVPPVLSDDSKNNVPAASLLHDVLPSSNLEKPPSPPVAAAPPLPTFSAPSLPQQSVSTSIPSPPPVAPTLSVRTETESISKNPTKSPPPPPSPSTMDTGTSNSPSKNLKQRLFSTGGSTLQHKHNTHTNQPDVDVGRYTIGGSNSIVGAKSGNERIVIDDSRFKWTNVSQMPKPRPFQNKTKLYPSGKGSSVPLDLTLFT

Tests used:
Assay in all cases: two-hybrid
Vrp1p (195–817) = biological target: B4
Vrp1p (1–200) = biological target: B2
Myo5p (1,082–1,219) = biological target: B1
Myo3p (1,118–1,271) = biological target: B3

Binder | lacZ activity (Miller units) (Vrp1p (195–817)) | lacZ activity (Miller units) (Vrp1p (1–200)) | lacZ activity (Miller units) (Myo5p (1,082–1,219)) | lacZ activity (Miller units) (Myo3p (1,118–1,271))
B1 | 345 ± 7.3 Miller units | 1060 ± 149 Miller units | – | –
B2 | – | – | 140 ± 2.3 Miller units | 254 ± 27.1 Miller units
B3 | 96.3 ± 21.8 Miller units | 1610 ± 264 Miller units | – | –
B4 | – | – | 28.5 ± 2 Miller units | 74.5 ± 4.3 Miller units
